Measured values from patent US12338277.

What was measured:
Experiment in all cases: cell-based or functional assay
[1] = target: HIV-1 envelope of pseudovirus T251-18 (HIV-1)
[2] = target: HIV-1 Env of pseudovirus Ce704809221_1B3 (HIV-1)
[3] = target: HIV-1 envelope of pseudovirus WITO4160.33 (HIV-1)
[4] = target: HIV-1 Env of pseudovirus 6535.3 (HIV-1)
[5] = target: HIV-1 Env of pseudovirus 211-9 (HIV-1)
[6] = target: HIV-1 Env of pseudovirus SC422661.8 (HIV-1)
[7] = target: HIV-1 envelope of pseudovirus 3016.v5.c45 (HIV-1)
[8] = target: HIV-1 envelope of pseudovirus 6041.v3.c23 (HIV-1)
[9] = target: HIV-1 envelope of pseudovirus T257-31 (HIV-1)
[10] = target: HIV-1 Env of pseudovirus 191821_E6_1 (HIV-1)
[11] = target: HIV-1 Env of pseudovirus 246F C1G (HIV-1)
[12] = target: HIV-1 Env of pseudovirus PVO.4 (HIV-1)
[13] = target: HIV-1 Env of pseudovirus BJOX015000.11.5 (HIV-1)
[14] = target: HIV-1 envelope spike of pseudovirus QH0692.42 (HIV-1)
[15] = target: HIV-1 envelope of pseudovirus 62357_14_03_4589 (HIV-1)
[16] = target: HIV-1 envelope of pseudovirus CAP210.2.00.E8 (HIV-1)
[17] = target: HIV-1 envelope of pseudovirus BJOX010000.06.2 (HIV-1)
[18] = target: HIV-1 Env of pseudovirus X2131_C1_85 (HIV-1)
[19] = target: HIV-1 Env of pseudovirus CNE21 (HIV-1)
[20] = target: HIV-1 Env of pseudovirus 191084 B7-19 (HIV-1)
[21] = target: HIV-1 envelope spike of pseudovirus BaL.26 (HIV-1)
[22] = target: HIV-1 Env of pseudovirus 231965.c01 (HIV-1)
[23] = target: HIV-1 envelope of pseudovirus C4118.c09 (HIV-1)
[24] = target: HIV-1 envelope of pseudovirus C3347.c11 (HIV-1)
[25] = target: HIV-1 envelope of pseudovirus 3415.v1.c1 (HIV-1)
[26] = target: HIV-1 envelope of pseudovirus Q23.17 (HIV-1)
[27] = target: HIV-1 envelope of pseudovirus CNE21 (HIV-1)
[28] = target: HIV-1 Env of pseudovirus X1193_c1 (HIV-1)
[29] = target: HIV-1 Env of pseudovirus BF1266.431a (HIV-1)
[30] = target: HIV-1 envelope of pseudovirus YU-2 (HIV-1)
[31] = target: HIV-1 Env of pseudovirus T257-31 (HIV-1)
[32] = target: HIV-1 envelope of pseudovirus ZM214M.PL15 (HIV-1)
[33] = target: HIV-1 envelope of pseudovirus 191821_E6_1 (HIV-1)
[34] = target: HIV-1 envelope of pseudovirus CNE5 (HIV-1)
[35] = target: HIV-1 envelope of pseudovirus Du156.12 (HIV-1)
[36] = target: HIV-1 envelope of pseudovirus REJO4541.67 (HIV-1)
[37] = target: HIV-1 envelope of pseudovirus HIV-16055-2.3 (HIV-1)
[38] = target: HIV-1 envelope of pseudovirus ZM247v1(Rev-) (HIV-1)
[39] = target: HIV-1 envelope of pseudovirus Ce1172_H1 (HIV-1)
[40] = target: HIV-1 envelope spike of pseudovirus 6535.3 (HIV-1)
[41] = target: HIV-1 envelope of pseudovirus THRO4156.18 (HIV-1)
[42] = target: HIV-1 Env of pseudovirus Du422.1 (HIV-1)
[43] = target: HIV-1 envelope of pseudovirus CNE17 (HIV-1)
[44] = target: HIV-1 envelope of pseudovirus Ce704809221_1B3 (HIV-1)
[45] = target: HIV-1 envelope of pseudovirus BF1266.431a (HIV-1)
[46] = target: HIV-1 Env of pseudovirus Du172.17 (HIV-1)
[47] = target: HIV-1 envelope of pseudovirus 6535.3 (HIV-1)
[48] = target: HIV-1 envelope of pseudovirus CNE20 (HIV-1)
[49] = target: HIV-1 Env of pseudovirus CAP210.2.00.E8 (HIV-1)
[50] = target: HIV-1 envelope of pseudovirus TRJO4551.58 (HIV-1)

Sequence of 10-996 (antibody) (VH): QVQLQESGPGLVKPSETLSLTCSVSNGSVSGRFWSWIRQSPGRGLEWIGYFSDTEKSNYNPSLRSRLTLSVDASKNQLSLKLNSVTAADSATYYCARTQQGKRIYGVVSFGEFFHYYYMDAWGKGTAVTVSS
Sequence of 10-996 (antibody) (VL): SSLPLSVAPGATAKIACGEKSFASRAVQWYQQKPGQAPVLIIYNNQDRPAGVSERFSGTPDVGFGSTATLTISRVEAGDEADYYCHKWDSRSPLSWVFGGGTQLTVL

10-996 (antibody)
IC50 (TZM-bl neutralization) [1]: 0.939 µg/mL
IC80 (TZM-bl neutralization) [2]: 1.21 µg/mL
IC50 (TZM-bl neutralization) [3]: 0.538 µg/mL
IC80 (TZM-bl neutralization) [4]: 0.046 µg/mL
IC80 (TZM-bl neutralization) [5]: 3.85 µg/mL
IC80 (TZM-bl neutralization) [6]: 0.627 µg/mL
IC50 (TZM-bl neutralization) [7]: > 50 µg/mL
IC50 (TZM-bl neutralization) [8]: > 50 µg/mL
IC50 (TZM-bl neutralization) [9]: > 50 µg/mL
IC80 (TZM-bl neutralization) [10]: > 50 µg/mL
IC80 (TZM-bl neutralization) [11]: 0.27 µg/mL
IC80 (TZM-bl neutralization) [12]: 0.952 µg/mL
IC80 (TZM-bl neutralization) [13]: > 50 µg/mL
IC50 (TZM-bl neutralization assay) [14]: 0.395 µg/mL
IC80 (TZM-bl neutralization assay) [14]: 1.4 µg/mL
IC50 (TZM-bl neutralization) [15]: 29.3 µg/mL
IC50 (TZM-bl neutralization) [16]: 24.8 µg/mL
IC50 (TZM-bl neutralization) [17]: > 50 µg/mL
IC80 (TZM-bl neutralization) [18]: 0.085 µg/mL
IC80 (TZM-bl neutralization) [19]: 0.255 µg/mL
IC80 (TZM-bl neutralization) [20]: 0.144 µg/mL
IC50 (TZM-bl neutralization assay) [21]: 0.045 µg/mL
IC80 (TZM-bl neutralization assay) [21]: 0.228 µg/mL
IC80 (TZM-bl neutralization) [22]: > 50 µg/mL
IC50 (TZM-bl neutralization) [23]: > 50 µg/mL
IC50 (TZM-bl neutralization) [24]: > 50 µg/mL
IC50 (TZM-bl neutralization) [25]: 35.9 µg/mL
IC50 (TZM-bl neutralization) [26]: 8 ng/mL
IC50 (TZM-bl neutralization) [27]: 0.086 µg/mL
IC80 (TZM-bl neutralization) [28]: 0.482 µg/mL
IC80 (TZM-bl neutralization) [29]: > 50 µg/mL
IC50 (TZM-bl neutralization) [30]: 0.256 µg/mL
IC80 (TZM-bl neutralization) [31]: > 50 µg/mL
IC50 (TZM-bl neutralization) [32]: 0.413 µg/mL
IC50 (TZM-bl neutralization) [33]: > 50 µg/mL
IC50 (TZM-bl neutralization) [34]: > 50 µg/mL
IC50 (TZM-bl neutralization) [35]: 0.018 µg/mL
IC50 (TZM-bl neutralization) [36]: > 50 µg/mL
IC50 (TZM-bl neutralization) [37]: > 50 µg/mL
IC50 (TZM-bl neutralization) [38]: 0.055 µg/mL
IC50 (TZM-bl neutralization) [39]: 0.058 µg/mL
IC50 (TZM-bl neutralization assay) [40]: 0.018 µg/mL
IC80 (TZM-bl neutralization assay) [40]: 0.085 µg/mL
IC50 (TZM-bl neutralization) [41]: > 50 µg/mL
IC80 (TZM-bl neutralization) [42]: 0.215 µg/mL
IC50 (TZM-bl neutralization) [43]: 4.04 µg/mL
IC50 (TZM-bl neutralization) [44]: 0.243 µg/mL
IC50 (TZM-bl neutralization) [45]: > 50 µg/mL
IC80 (TZM-bl neutralization) [46]: 0.607 µg/mL
IC50 (TZM-bl neutralization) [47]: 0.017 µg/mL
IC50 (TZM-bl neutralization) [48]: < 1 ng/mL
IC80 (TZM-bl neutralization) [49]: > 50 µg/mL
IC50 (TZM-bl neutralization) [50]: 0.147 µg/mL
